Patent US20180289803A1 (Eli Lilly, published 2018)

Biological target: human PD-L1 (endogenous, in the mixed leukocyte reaction of human CD4 T-cells and monocyte-derived dendritic … (human, UniProt Q9NZQ7 19-290))
Test: cell-based or functional assay

B1: Antibody C (bispecific antibody, human IgG1, kappa, lambda, L234A L235A)
heavy 1: not shown
light 1: not shown
heavy 2: not shown
light 2: DIVMTQSPSSLSASVGDGVTITCQASQDIYNYLNWYQQKPGKAPKLLIYYASSIVSGVPSRFSGSGSGTDFTLTISSLQPEDFATYYCQQASSFPPTFGQGTKLEIKRTVAAPSVFIFPPSDEQLKSGTARVGCLLNNFYPREAKVQWKVDNALQSGNSQESVTEQDSKDSTYSLRSALTLSKADYEKHKVYACEVTHQGLSSPVTKSFNRGEC
IFN-γ levels in the mixed leukocyte reaction (MLR) at 4 nM antibody: ~3 fold
IFN-γ levels in the mixed leukocyte reaction (MLR) at 8 nM antibody: ~5 fold
